Test results from the supplement of paper PMC10567573.

B1: ZNF511 (parent)
chain: HLYPADFRFDKPKKSRSPASAEAP
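Also: lentivirally expressed fusions sorted by FACS into six bins by GFP to DsRed ratio, PSI derived from sequencing read proportions per bin multiplied by bin number.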

Variants of: B1
Test: protein stability index of a GFP-peptide fusion (GPS, HEK-293T) (PSI 1-6); higher = more stable
Conditions: c terminus: a fixed tail appended
Variant HLYPADFRFDKPKKSRSPTSAEAP [A19T] has a protein stability index of 3.29. Variant HLYPADFRFDKPKKSRSPWSAEAP [A19W] has a protein stability index of 2. HLYPADFRFDKPKKSRSPSSAEAP [A19S] showed a protein stability index of 3.44. Work on HLYPADFRFDKPKKSRSPQSAEAP [A19Q] yielded a protein stability index of 2.56. HLYPADFRFDKPKKSRSPVSAEAP [A19V] showed a protein stability index of 2.87. Variant HLYPADFRFDKPKKSRSPLSAEAP [A19L] has a protein stability index of 2.88. With HLYPADFRFDKPKKSRSPMSAEAP [A19M] the protein stability index was 2.7. HLYPADFRFDKPKKSRSPRSAEAP [A19R] gave a protein stability index of 2.81. HLYPADFRFDKPKKSRSPPSAEAP [A19P] gave a protein stability index of 3.18. In the case of HLYPADFRFDKPKKSRSPYSAEAP [A19Y], the protein stability index is reported as 2.69. With HLYPADFRFDKPKKSRSPNSAEAP [A19N] the protein stability index was 2.56. Work on HLYPADFRFDKPKKSRSPAMAEAP [S20M] yielded a protein stability index of 2.68. In the case of HLYPADFRFDKPKKSRSPAEAEAP [S20E], the protein stability index is reported as 2.78. Variant HLYPADFRFDKPKKSRSPAGAEAP [S20G] has a protein stability index of 2.85. Variant HLYPADFRFDKPKKSRSPARAEAP [S20R] has a protein stability index of 2.97. Variant HLYPADFRFDKPKKSRSPAYAEAP [S20Y] has a protein stability index of 2.61. Variant HLYPADFRFDKPKKSRSPATAEAP [S20T] has a protein stability index of 3.07. With HLYPADFRFDKPKKSRSPAHAEAP [S20H] the protein stability index was 2.69. With HLYPADFRFDKPKKSRSPAVAEAP [S20V] the protein stability index was 2.82. In the case of HLYPADFRFDKPKKSRSPADAEAP [S20D], the protein stability index is reported as 2.97. Variant HLYPADFRFDKPKKSRSPAWAEAP [S20W] has a protein stability index of 1.8. HLYPADFRFDKPKKSRSPACAEAP [S20C] gave a protein stability index of 2.92. HLYPADFRFDKPKKSRSPAIAEAP [S20I] showed a protein stability index of 2.64. For HLYPADFRFDKPKKSRSPALAEAP [S20L], the protein stability index was 2.51. With HLYPADFRFDKPKKSRSPAFAEAP [S20F] the protein stability index was 2.22. HLYPADFRFDKPKKSRSPAAAEAP [S20A] showed a protein stability index of 3.32. Variant HLYPADFRFDKPKKSRSPAPAEAP [S20P] has a protein stability index of 2.72. In the case of HLYPADFRFDKPKKSRSPANAEAP [S20N], the protein stability index is reported as 3.36. With HLYPADFRFDKPKKSRSPAQAEAP [S20Q] the protein stability index was 2.42. HLYPADFRFDKPKKSRSPAKAEAP [S20K] showed a protein stability index of 2.71. Work on HLYPADFRFDKPKKSRSPASAEYP [A23Y] yielded a protein stability index of 2.63. Work on HLYPADFRFDKPKKSRSPASAEFP [A23F] yielded a protein stability index of 2.76. Variant HLYPADFRFDKPKKSRSPASAERP [A23R] has a protein stability index of 2.8. Work on HLYPADFRFDKPKKSRSPASAEKP [A23K] yielded a protein stability index of 3.19. In the case of HLYPADFRFDKPKKSRSPASAEMP [A23M], the protein stability index is reported as 2.53. With HLYPADFRFDKPKKSRSPASAEVP [A23V] the protein stability index was 2.73. Variant HLYPADFRFDKPKKSRSPASAESP [A23S] has a protein stability index of 2.86. Variant HLYPADFRFDKPKKSRSPASAEQP [A23Q] has a protein stability index of 3.06. For HLYPADFRFDKPKKSRSPASAETP [A23T], the protein stability index was 2.72. Work on HLYPADFRFDKPKKSRSPASAECP [A23C] yielded a protein stability index of 2.73. Variant HLYPADFRFDKPKKSRSPASAEHP [A23H] has a protein stability index of 3.13. HLYPADFRFDKPKKSRSPASAENP [A23N] gave a protein stability index of 3.1. HLYPADFRFDKPKKSRSPASAEIP [A23I] gave a protein stability index of 2.69. HLYPADFRFDKPKKSRSPASAEEP [A23E] showed a protein stability index of 2.88. HLYPADFRFDKPKKSRSPASAEPP [A23P] showed a protein stability index of 3.37. HLYPADFRFDKPKKSRSPASAEWP [A23W] gave a protein stability index of 2.82. HLYPADFRFDKPKKSRSPASAEDP [A23D] showed a protein stability index of 3.24. HLYPADFRFDKPKKSRSPASAEGP [A23G] gave a protein stability index of 3.28. With HLYPADFRFDKPKKSRSPASAELP [A23L] the protein stability index was 2.88. In the case of HLYPADFRFDKPKKSRSPASAQAP [E22Q], the protein stability index is reported as 2.61. For HLYPADFRFDKPKKSRSPASASAP [E22S], the protein stability index was 2.83. With HLYPADFRFDKPKKSRSPASARAP [E22R] the protein stability index was 2.43. In the case of HLYPADFRFDKPKKSRSPASAAAP [E22A], the protein stability index is reported as 2.7. Work on HLYPADFRFDKPKKSRSPASAPAP [E22P] yielded a protein stability index of 2.91. Variant HLYPADFRFDKPKKSRSPASAFAP [E22F] has a protein stability index of 2.52. HLYPADFRFDKPKKSRSPASAKAP [E22K] gave a protein stability index of 2.69. Variant HLYPADFRFDKPKKSRSPASALAP [E22L] has a protein stability index of 2.58. HLYPADFRFDKPKKSRSPASACAP [E22C] showed a protein stability index of 2.67. HLYPADFRFDKPKKSRSPASAMAP [E22M] gave a protein stability index of 2.19. Work on HLYPADFRFDKPKKSRSPASAHAP [E22H] yielded a protein stability index of 2.63. With HLYPADFRFDKPKKSRSPASAGAP [E22G] the protein stability index was 3.13. HLYPADFRFDKPKKSRSPASAIAP [E22I] gave a protein stability index of 2.93. For HLYPADFRFDKPKKSRSPASAYAP [E22Y], the protein stability index was 2.34. HLYPADFRFDKPKKSRSPASADAP [E22D] showed a protein stability index of 2.99. With HLYPADFRFDKPKKSRSPASAWAP [E22W] the protein stability index was 2.44. For HLYPADFRFDKPKKSRSPASANAP [E22N], the protein stability index was 2.9. Work on HLYPADFRFDKPKKSRSPASATAP [E22T] yielded a protein stability index of 2.64. HLYPADFRFDKPKKSRSPASAVAP [E22V] showed a protein stability index of 2.7. Work on HLYPADFRFDKPKKSRSPASCEAP [A21C] yielded a protein stability index of 3.1. HLYPADFRFDKPKKSRSPASEEAP [A21E] showed a protein stability index of 3.08. With HLYPADFRFDKPKKSRSPASNEAP [A21N] the protein stability index was 2.96. In the case of HLYPADFRFDKPKKSRSPASGEAP [A21G], the protein stability index is reported as 3. HLYPADFRFDKPKKSRSPASREAP [A21R] gave a protein stability index of 2.84. Work on HLYPADFRFDKPKKSRSPASIEAP [A21I] yielded a protein stability index of 2.82. With HLYPADFRFDKPKKSRSPASMEAP [A21M] the protein stability index was 3. HLYPADFRFDKPKKSRSPASKEAP [A21K] showed a protein stability index of 2.81. HLYPADFRFDKPKKSRSPASWEAP [A21W] showed a protein stability index of 2.28. In the case of HLYPADFRFDKPKKSRSPASFEAP [A21F], the protein stability index is reported as 3.18. With HLYPADFRFDKPKKSRSPASSEAP [A21S] the protein stability index was 3.4. In the case of HLYPADFRFDKPKKSRSPASPEAP [A21P], the protein stability index is reported as 3.11. HLYPADFRFDKPKKSRSPASYEAP [A21Y] showed a protein stability index of 2.95. In the case of HLYPADFRFDKPKKSRSPASLEAP [A21L], the protein stability index is reported as 2.38. HLYPADFRFDKPKKSRSPASHEAP [A21H] gave a protein stability index of 3.12. HLYPADFRFDKPKKSRSPASVEAP [A21V] showed a protein stability index of 2.71. Work on HLYPADFRFDKPKKSRSPASTEAP [A21T] yielded a protein stability index of 2.75. Variant HLYPADFRFDKPKKSRSPASQEAP [A21Q] has a protein stability index of 3.67. For HLYPADFRFDKPKKSRSPASDEAP [A21D], the protein stability index was 2.72. For HLYPADFRFDKPKKSRSPASAEAS [P24S], the protein stability index was 3.62. Work on HLYPADFRFDKPKKSRSPASAEAE [P24E] yielded a protein stability index of 2.6. Variant HLYPADFRFDKPKKSRSPASAEAN [P24N] has a protein stability index of 3.09. In the case of HLYPADFRFDKPKKSRSPASAEAI [P24I], the protein stability index is reported as 2.61. HLYPADFRFDKPKKSRSPASAEAK [P24K] showed a protein stability index of 2.97. In the case of HLYPADFRFDKPKKSRSPASAEAT [P24T], the protein stability index is reported as 2.71. HLYPADFRFDKPKKSRSPASAEAF [P24F] showed a protein stability index of 2.94.
